Test results as given in article PMC11609053.

What was measured:
[1] = biological target: T1, SCAB_Lrp2 (Streptomyces scabies 87.22) (UniProt C9Z7M0); experiment: EMSA; conditions: 20 uL: 50 ng biotin-labelled probe, 0-400 nM protein, 2 uL binding buffer (Liu et al. 2023; composition, pH and temperature not given), chemiluminescent …
T1 sequence: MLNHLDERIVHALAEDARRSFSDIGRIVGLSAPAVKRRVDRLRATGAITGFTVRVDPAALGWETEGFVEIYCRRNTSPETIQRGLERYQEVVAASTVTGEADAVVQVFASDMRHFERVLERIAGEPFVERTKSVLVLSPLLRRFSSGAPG

[2] = biological target: T2, SCAB_Lrp (Streptomyces scabies 87.22?) (UniProt C9ZB67); experiment: EMSA; conditions: 20 uL: 50 ng biotin-labelled probe, 0-400 nM protein, 2 uL binding buffer (Liu et al. 2023; composition, pH and temperature not given), chemiluminescent …
T2 sequence: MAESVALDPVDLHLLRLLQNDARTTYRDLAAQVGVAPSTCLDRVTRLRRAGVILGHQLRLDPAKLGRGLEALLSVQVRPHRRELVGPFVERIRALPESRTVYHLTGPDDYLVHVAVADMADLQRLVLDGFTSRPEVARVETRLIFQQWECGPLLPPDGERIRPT

“GTCGTCTTCGGCGTCTGGATGGCCGCCGGGCTCGTGTTCTACTTCAGTTACGGCCACCGGCGCTCGCGTCTGGCTGCGGCCCCGGCCCCCGCCGACCCCACGTCCCCGCCGGCTCCCCCGTCCACGTCCCCGTCGACTCCAGAGAAGTGATCCACCCGCAGTGCTGAACCATCTCGACGA (double strand) [P75421]” was tested, and the binding [1] was “binds” and the binding [2] was “binds”.
For “AAGGCAGTACCTTGCGCTCGGCGCGTCGGCCGGAAATCGAGTGAAGCAAGATGCTTCCCCCTTCTCGGCTCCGAGCGCGACAAACAGTTCAGAACAGGCCACGGCGAGATCCTCCGCAAGGAACGAACCCAGTCGTTCACCCGCTTAGTTTGATTGAAATTTCAACTACCAGGTCAATCG (double strand) [PtxtR]”, the binding [1] was “binds”.
